Data from patent US20180086804A1 (COMMISSARIAT A L ENERGIE ATOMIQUE ET AUX ENERGIES …, published 2018).
No end group written: not given here.

The binders below were run against T1, HLA-DR4 (HLA-DRB1*04:01) (human) (assay: competition ELISA vs biotin-HA 306-318;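 note: HLA and competitor incubated 24 to 72 h, maximal signal taken from wells lacking competitor, background from wells lacking HLA molecule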).
T1 construct: mature; purified from homozygous EBV-transformed lymphoblastoid cells with antibody L243
AKISTLPQLNSALVQ-NH2 [CCNB1 410-424] showed a relative affinity of 408. AKYLMELTMLDYDMV-NH2 [CCNB1 323-337] showed a relative affinity of 0.2. MEMKILRALNFGLGR-NH2 [CCNB1 285-299] gave a relative affinity of 7. HTLAKYLMELTMLDY-NH2 [CCNB1 320-334] showed a relative affinity of 1. Binder PQLNSALVQDLAKAV-NH2 [CCNB1 416-430] has a relative affinity of 54. Work on NSALVQDLAKAVAKV-NH2 [CCNB1 419-433] yielded a relative affinity of 333.

Each binder was assayed against T2, HLA-DR1 (HLA-DRB1*01:01) (human) (assay: competition ELISA vs biotin-HA 306-318;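 note: HLA and competitor incubated 24 to 72 h, maximal signal taken from wells lacking competitor, background from wells lacking HLA molecule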).
T2 construct: mature; class II HLA molecule purified from homozygous EBV-transformed lymphoblastoid cells with antibody L243
With AKISTLPQLNSALVQ-NH2 [CCNB1 410-424] the relative affinity was 89. In the case of AKYLMELTMLDYDMV-NH2 [CCNB1 323-337], the relative affinity is reported as 4. Work on MEMKILRALNFGLGR-NH2 [CCNB1 285-299] yielded a relative affinity of 1. HTLAKYLMELTMLDY-NH2 [CCNB1 320-334] showed a relative affinity of 16. In the case of PQLNSALVQDLAKAV-NH2 [CCNB1 416-430], the relative affinity is reported as 693. NSALVQDLAKAVAKV-NH2 [CCNB1 419-433] was tested, and the relative affinity was 155.

Each binder was assayed against T3, HLA-DRB5 (HLA-DRB5*01:01) (human) (assay: competition ELISA vs biotin-HA 306-318;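 note: HLA and competitor incubated 24 to 72 h, maximal signal taken from wells lacking competitor, background from wells lacking HLA molecule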).
T3 construct: mature; purified from homozygous EBV-transformed lymphoblastoid cells with antibody L243
In the case of AKYLMELTMLDYDMV-NH2 [CCNB1 323-337], the relative affinity is reported as 2. For MEMKILRALNFGLGR-NH2 [CCNB1 285-299], the relative affinity was 2. HTLAKYLMELTMLDY-NH2 [CCNB1 320-334] was tested, and the relative affinity was 17. PQLNSALVQDLAKAV-NH2 [CCNB1 416-430] showed a relative affinity of 548.

What follows are binders tested against T4, HLA-DR11 (HLA-DRB1*11:01) (human) (assay: competition ELISA vs biotin-HA 306-318;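 note: HLA and competitor incubated 24 to 72 h, maximal signal taken from wells lacking competitor, background from wells lacking HLA molecule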).
T4 construct: mature; purified from homozygous EBV-transformed lymphoblastoid cells with antibody L243
AKISTLPQLNSALVQ-NH2 [CCNB1 410-424] showed a relative affinity of 1. Binder AKYLMELTMLDYDMV-NH2 [CCNB1 323-337] has a relative affinity of 0.4. For MEMKILRALNFGLGR-NH2 [CCNB1 285-299], the relative affinity was 4. In the case of HTLAKYLMELTMLDY-NH2 [CCNB1 320-334], the relative affinity is reported as 2. PQLNSALVQDLAKAV-NH2 [CCNB1 416-430] gave a relative affinity of 123. NSALVQDLAKAVAKV-NH2 [CCNB1 419-433] gave a relative affinity of 3.

What follows are binders tested against T5, HLA-DR13 (HLA-DRB1*13:01) (human) (assay: competition ELISA vs biotin-B1 21-36).
T5 construct: mature; purified from homozygous EBV-transformed lymphoblastoid cells with antibody L243
Work on AKISTLPQLNSALVQ-NH2 [CCNB1 410-424] yielded a relative affinity of 94. Work on MEMKILRALNFGLGR-NH2 [CCNB1 285-299] yielded a relative affinity of 1. With HTLAKYLMELTMLDY-NH2 [CCNB1 320-334] the relative affinity was 10. NSALVQDLAKAVAKV-NH2 [CCNB1 419-433] was tested, and the relative affinity was 37.

What follows are binders tested against T6, HLA-DR3 (HLA-DRB1*03:01) (human) (assay: competition ELISA vs biotin-MT 2-16).
T6 construct: mature; purified from homozygous EBV-transformed lymphoblastoid cells with antibody L243
For AKYLMELTMLDYDMV-NH2 [CCNB1 323-337], the relative affinity was 2. Binder MEMKILRALNFGLGR-NH2 [CCNB1 285-299] has a relative affinity of 51. HTLAKYLMELTMLDY-NH2 [CCNB1 320-334] was tested, and the relative affinity was 1. PQLNSALVQDLAKAV-NH2 [CCNB1 416-430] showed a relative affinity of 9. NSALVQDLAKAVAKV-NH2 [CCNB1 419-433] showed a relative affinity of 1.

The binders below were run against T7, HLA-DR15 (HLA-DRB1*15:01) (human) (assay: competition ELISA vs biotin-A3 152-166).
T7 construct: mature; purified from homozygous EBV-transformed lymphoblastoid cells with antibody L243
With AKISTLPQLNSALVQ-NH2 [CCNB1 410-424] the relative affinity was 12. AKYLMELTMLDYDMV-NH2 [CCNB1 323-337] was tested, and the relative affinity was 2. With MEMKILRALNFGLGR-NH2 [CCNB1 285-299] the relative affinity was 0.03. For HTLAKYLMELTMLDY-NH2 [CCNB1 320-334], the relative affinity was 3. Binder PQLNSALVQDLAKAV-NH2 [CCNB1 416-430] has a relative affinity of 71. NSALVQDLAKAVAKV-NH2 [CCNB1 419-433] was tested, and the relative affinity was 7.

What follows are binders tested against T8, HLA-DR7 (HLA-DRB1*07:01) (human) (assay: competition ELISA vs biotin-YKL).
T8 construct: mature; purified from homozygous EBV-transformed lymphoblastoid cells with antibody L243
AKYLMELTMLDYDMV-NH2 [CCNB1 323-337] was tested, and the relative affinity was 8. MEMKILRALNFGLGR-NH2 [CCNB1 285-299] showed a relative affinity of 0.1. HTLAKYLMELTMLDY-NH2 [CCNB1 320-334] was tested, and the relative affinity was 18. With PQLNSALVQDLAKAV-NH2 [CCNB1 416-430] the relative affinity was 47. NSALVQDLAKAVAKV-NH2 [CCNB1 419-433] gave a relative affinity of 183.

Each binder was assayed against T9, HLA-DP402 (HLA-DPB1*04:02) (human, UniProt P20036 29-222) (assay: competition ELISA vs biotin-Oxy 271-287).
T9 construct: mature; purified from homozygous EBV-transformed lymphoblastoid cells with antibody B7/21
With AKISTLPQLNSALVQ-NH2 [CCNB1 410-424] the relative affinity was 1120. AKYLMELTMLDYDMV-NH2 [CCNB1 323-337] showed a relative affinity of 6. For MEMKILRALNFGLGR-NH2 [CCNB1 285-299], the relative affinity was 4. For HTLAKYLMELTMLDY-NH2 [CCNB1 320-334], the relative affinity was 3. For PQLNSALVQDLAKAV-NH2 [CCNB1 416-430], the relative affinity was 74. In the case of NSALVQDLAKAVAKV-NH2 [CCNB1 419-433], the relative affinity is reported as 148.

What follows are binders tested against T10, HLA-DP401 (HLA-DPB1*04:01) (human, UniProt P20036 29-222) (assay: competition ELISA vs biotin-Oxy 271-287).
T10 construct: mature; purified from homozygous EBV-transformed lymphoblastoid cells with antibody B7/21
Work on AKYLMELTMLDYDMV-NH2 [CCNB1 323-337] yielded a relative affinity of 1. MEMKILRALNFGLGR-NH2 [CCNB1 285-299] showed a relative affinity of 30. HTLAKYLMELTMLDY-NH2 [CCNB1 320-334] showed a relative affinity of 8. For PQLNSALVQDLAKAV-NH2 [CCNB1 416-430], the relative affinity was 59.

The binders below were run against T11, HLA-DRB4 (HLA-DRB4*01:01) (human) (assay: competition ELISA vs biotin-E2/E168).
T11 construct: mature; purified from homozygous EBV-transformed lymphoblastoid cells with antibody L243
Work on AKISTLPQLNSALVQ-NH2 [CCNB1 410-424] yielded a relative affinity of 966. For AKYLMELTMLDYDMV-NH2 [CCNB1 323-337], the relative affinity was 7. In the case of MEMKILRALNFGLGR-NH2 [CCNB1 285-299], the relative affinity is reported as 18. Work on HTLAKYLMELTMLDY-NH2 [CCNB1 320-334] yielded a relative affinity of 18. Work on PQLNSALVQDLAKAV-NH2 [CCNB1 416-430] yielded a relative affinity of 1800.

Each binder was assayed against T12, HLA-DRB3 (HLA-DRB3*01:01) (human) (assay: competition ELISA vs biotin-LOL 191-210).
T12 construct: mature; purified from homozygous EBV-transformed lymphoblastoid cells with antibody L243
AKYLMELTMLDYDMV-NH2 [CCNB1 323-337] was tested, and the relative affinity was 41. With HTLAKYLMELTMLDY-NH2 [CCNB1 320-334] the relative affinity was 24. For PQLNSALVQDLAKAV-NH2 [CCNB1 416-430], the relative affinity was 3. NSALVQDLAKAVAKV-NH2 [CCNB1 419-433] showed a relative affinity of 7.

Target: T13, HLA-DR13 (HLA-DRB1*13:01) (human)
T13 chain 1: not shown
T13 chain 2: not shown
Experiment: competition ELISA vs biotin-B1 21-36
TERVRLVTRHIYNREE (modifications not checked) [B1 21-36] gave an IC50 of 51 nM.
